According to the supplement of paper PMC10567573:

B1: TFE3 (parent)
chain: FPSDHLGDLGDPFHLGLEDILMEE

Variants of: B1
Experiment: protein stability index of a GFP-peptide fusion (GPS, HEK-293T) (PSI 1-6); higher = more stable
Conditions: c terminus: a fixed tail appended
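Note: lentivirally expressed fusions sorted by FACS into six bins by GFP to DsRed ratio, PSI derived from sequencing read proportions per bin multiplied by bin number.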

Variant	protein stability index
FPSDHLGDLGDPFHLGLDDILMEE [E18D]	3.87
FPSDHLGDLGDPFHLGLSDILMEE [E18S]	3.51
FPSDHLGDLGDPFHLGLFDILMEE [E18F]	1.91
FPSDHLGDLGDPFHLGLADILMEE [E18A]	2.7
FPSDHLGDLGDPFHLGLQDILMEE [E18Q]	2.89
FPSDHLGDLGDPFHLGLVDILMEE [E18V]	3.22
FPSDHLGDLGDPFHLGLYDILMEE [E18Y]	2.1
FPSDHLGDLGDPFHLGLPDILMEE [E18P]	3.07
FPSDHLGDLGDPFHLGLRDILMEE [E18R]	2.28
FPSDHLGDLGDPFHLGLMDILMEE [E18M]	2.62
FPSDHLGDLGDPFHLGLEDELMEE [I20E]	4.2
FPSDHLGDLGDPFHLGLEDFLMEE [I20F]	3.82
FPSDHLGDLGDPFHLGLEDGLMEE [I20G]	4.16
FPSDHLGDLGDPFHLGLEDPLMEE [I20P]	3.77
FPSDHLGDLGDPFHLGLEDRLMEE [I20R]	3.5
FPSDHLGDLGDPFHLGLEDILQEE [M22Q]	3.75
FPSDHLGDLGDPFHLGLEDILCEE [M22C]	3.53
FPSDHLGDLGDPFHLGLEDILYEE [M22Y]	3.13
FPSDHLGDLGDPFHLGLEDILSEE [M22S]	3.87
FPSDHLGDLGDPFILGLEDILMEE [H14I]	3.44
FPSDHLGDLGDPFYLGLEDILMEE [H14Y]	3.32
FPSDHLGDLGDPFPLGLEDILMEE [H14P]	4.66
FPSDHLGDLGDPFVLGLEDILMEE [H14V]	3.04
FPSDHLGDLGDPFNLGLEDILMEE [H14N]	3.67

Variant	protein stability index
FPSDHLGDLGDPFFLGLEDILMEE [H14F]	3.09
FPSDHLGDLGDPFRLGLEDILMEE [H14R]	3.52
FPSDHLGDLGDPFMLGLEDILMEE [H14M]	3.74
FVSDHLGDLGDPFHLGLEDILMEE [P2V]	1.5
FTSDHLGDLGDPFHLGLEDILMEE [P2T]	2.74
FRSDHLGDLGDPFHLGLEDILMEE [P2R]	3.52
FMSDHLGDLGDPFHLGLEDILMEE [P2M]	3.25
FYSDHLGDLGDPFHLGLEDILMEE [P2Y]	3
FFSDHLGDLGDPFHLGLEDILMEE [P2F]	2.83
FESDHLGDLGDPFHLGLEDILMEE [P2E]	4.51
FSSDHLGDLGDPFHLGLEDILMEE [P2S]	3.96
FNSDHLGDLGDPFHLGLEDILMEE [P2N]	4.24
FASDHLGDLGDPFHLGLEDILMEE [P2A]	2.62
FGSDHLGDLGDPFHLGLEDILMEE [P2G]	3.62
FQSDHLGDLGDPFHLGLEDILMEE [P2Q]	2.63
FPSDHLGDLGDPFHLGLEDILMSE [E23S]	2.81
FPSDHLGDLGDPFHLGLEDILMWE [E23W]	2.56
FPSDHLGDLGDPFHLGLEDILMPE [E23P]	2.76
FPSDHLGDLGDPFHLGLEDILMIE [E23I]	2.62
FPSDHLVDLGDPFHLGLEDILMEE [G7V]	3.77
FPSDHLRDLGDPFHLGLEDILMEE [G7R]	3.36
FPSDHLIDLGDPFHLGLEDILMEE [G7I]	3.12
FPSDHLMDLGDPFHLGLEDILMEE [G7M]	3.29
FPSDHLEDLGDPFHLGLEDILMEE [G7E]	3.92

Variant	protein stability index
FPSDHLGDLPDPFHLGLEDILMEE [G10P]	3.47
FPSDHLGDLRDPFHLGLEDILMEE [G10R]	3.3
FPSDHLGDLYDPFHLGLEDILMEE [G10Y]	2.21
FPSDHLGDLKDPFHLGLEDILMEE [G10K]	3.14
FPSDHLGDLSDPFHLGLEDILMEE [G10S]	3.15
FPSDHLGDLMDPFHLGLEDILMEE [G10M]	3.33
FPSDHLGDLHDPFHLGLEDILMEE [G10H]	2.95
FPSDHLGDLDDPFHLGLEDILMEE [G10D]	3.37
FPSDHLGDLGDPYHLGLEDILMEE [F13Y]	2.82
FPSDHLGDLGDPLHLGLEDILMEE [F13L]	4.25
FPSDHLGDLGDPMHLGLEDILMEE [F13M]	4.7
FPSDHLGDLGDPQHLGLEDILMEE [F13Q]	4.61
FPSDHLGDLGDPRHLGLEDILMEE [F13R]	4.74
FPSDHLGDLGDPPHLGLEDILMEE [F13P]	4.91
FPSDHLGDLGDPEHLGLEDILMEE [F13E]	5.21
FPSDHLGDLGDPWHLGLEDILMEE [F13W]	1.76
FPSDHLGDLGDPVHLGLEDILMEE [F13V]	4.89
FPSDHLGDLGDPAHLGLEDILMEE [F13A]	4.62
FPSDHLGDLGIPFHLGLEDILMEE [D11I]	3.23
FPSDHLGDLGFPFHLGLEDILMEE [D11F]	2.66
FPSDHLGDLGVPFHLGLEDILMEE [D11V]	3.32
FPSDHLGDLGHPFHLGLEDILMEE [D11H]	2.27
FPSDHLGDLGCPFHLGLEDILMEE [D11C]	2.74
FPSDHLGDLGRPFHLGLEDILMEE [D11R]	3.72

Variant	protein stability index
FPSDHLGDLGPPFHLGLEDILMEE [D11P]	3.87
FPSDHLGDLGSPFHLGLEDILMEE [D11S]	2.13
FPSDHLGDLGKPFHLGLEDILMEE [D11K]	3.42
FPSNHLGDLGDPFHLGLEDILMEE [D4N]	3.22
FPSWHLGDLGDPFHLGLEDILMEE [D4W]	1.7
FPSEHLGDLGDPFHLGLEDILMEE [D4E]	3.77
FPSRHLGDLGDPFHLGLEDILMEE [D4R]	2.04
FPSKHLGDLGDPFHLGLEDILMEE [D4K]	1.87
FPSTHLGDLGDPFHLGLEDILMEE [D4T]	2.35
FPSGHLGDLGDPFHLGLEDILMEE [D4G]	2.49
FPSYHLGDLGDPFHLGLEDILMEE [D4Y]	2.75
FPSDHLGDLGDNFHLGLEDILMEE [P12N]	4.3
FPSDHLGDLGDDFHLGLEDILMEE [P12D]	4.35
FPSDHLGDLGDRFHLGLEDILMEE [P12R]	4.1
FPSDHLGDLGDFFHLGLEDILMEE [P12F]	4.01
FPSDHLGDLGDHFHLGLEDILMEE [P12H]	3.98
FPSDHLGDLGDQFHLGLEDILMEE [P12Q]	4.29
FPSDHLGDLGDWFHLGLEDILMEE [P12W]	2.71
FPSDHLGDLGDEFHLGLEDILMEE [P12E]	4.15
FPSDHLGDLGDAFHLGLEDILMEE [P12A]	3.11
FPSDHLGDLGDPFHLGLEDILMEC [E24C]	2.96
FPSDHLGDLGDPFHLGLEDILMEV [E24V]	1.59
FPSDHLGDLGDPFHLGLEDILMES [E24S]	2.91
FPSDHLGDLGDPFHLGLEDILMET [E24T]	2.95

Variant	protein stability index
FPSDHLGDLGDPFHLGLEDILMER [E24R]	2.87
FPSDHLGDLGDPFHLGLEDILMEY [E24Y]	2.35
FPSDHLGDLGDPFHLGLEDILMEW [E24W]	1.8
PPSDHLGDLGDPFHLGLEDILMEE [F1P]	5.13
YPSDHLGDLGDPFHLGLEDILMEE [F1Y]	3.3
MPSDHLGDLGDPFHLGLEDILMEE [F1M]	4.82
DPSDHLGDLGDPFHLGLEDILMEE [F1D]	4.84
SPSDHLGDLGDPFHLGLEDILMEE [F1S]	5.1
EPSDHLGDLGDPFHLGLEDILMEE [F1E]	4.96
APSDHLGDLGDPFHLGLEDILMEE [F1A]	5.42
NPSDHLGDLGDPFHLGLEDILMEE [F1N]	4.91
HPSDHLGDLGDPFHLGLEDILMEE [F1H]	4.7
FPSDNLGDLGDPFHLGLEDILMEE [H5N]	3.87
FPSDILGDLGDPFHLGLEDILMEE [H5I]	3.08
FPSDVLGDLGDPFHLGLEDILMEE [H5V]	3.87
FPSDALGDLGDPFHLGLEDILMEE [H5A]	4.06
FPSDGLGDLGDPFHLGLEDILMEE [H5G]	3.36
FPSDHHGDLGDPFHLGLEDILMEE [L6H]	3.98
FPSDHWGDLGDPFHLGLEDILMEE [L6W]	1.75
FPSDHDGDLGDPFHLGLEDILMEE [L6D]	4.09
FPSDHEGDLGDPFHLGLEDILMEE [L6E]	3.96
FPSDHRGDLGDPFHLGLEDILMEE [L6R]	2.98
FPSDHGGDLGDPFHLGLEDILMEE [L6G]	3.64
FPSDHAGDLGDPFHLGLEDILMEE [L6A]	3.69

Variant	protein stability index
FPSDHFGDLGDPFHLGLEDILMEE [L6F]	3.16
FPSDHNGDLGDPFHLGLEDILMEE [L6N]	3.85
FPSDHLGDLGDPFHLDLEDILMEE [G16D]	3.59
FPSDHLGDLGDPFHLMLEDILMEE [G16M]	3.51
FPSDHLGDLGDPFHLLLEDILMEE [G16L]	2.4
FPSDHLGDLGDPFHLALEDILMEE [G16A]	3.58
FPSDHLGDLGDPFHLSLEDILMEE [G16S]	3.26
FPSDHLGDLGDPFHLELEDILMEE [G16E]	3.96
FPSDHLGDLGDPFHLHLEDILMEE [G16H]	3.25
FPSDHLGDLGDPFHLTLEDILMEE [G16T]	3.1
FPSDHLGDLGDPFHLRLEDILMEE [G16R]	2.7
FPSDHLGDLGDPFHLGSEDILMEE [L17S]	3.86
FPSDHLGDLGDPFHLGNEDILMEE [L17N]	4.21
FPSDHLGDLGDPFHLGCEDILMEE [L17C]	3.5
FPSDHLGDLGDPFHLGEEDILMEE [L17E]	4.11
FPSDHLGDLGDPFHLGPEDILMEE [L17P]	3.67
FPSDHLGDLGDPFHLGTEDILMEE [L17T]	3.47
FPTDHLGDLGDPFHLGLEDILMEE [S3T]	2.9
FPQDHLGDLGDPFHLGLEDILMEE [S3Q]	3.57
FPADHLGDLGDPFHLGLEDILMEE [S3A]	2.85
FPNDHLGDLGDPFHLGLEDILMEE [S3N]	3.16
FPLDHLGDLGDPFHLGLEDILMEE [S3L]	3.04
FPFDHLGDLGDPFHLGLEDILMEE [S3F]	2.29
FPIDHLGDLGDPFHLGLEDILMEE [S3I]	3.02

Variant	protein stability index
FPCDHLGDLGDPFHLGLEDILMEE [S3C]	2.46
FPVDHLGDLGDPFHLGLEDILMEE [S3V]	2.56
FPRDHLGDLGDPFHLGLEDILMEE [S3R]	2.6
FPSDHLGFLGDPFHLGLEDILMEE [D8F]	2.52
FPSDHLGTLGDPFHLGLEDILMEE [D8T]	2.36
FPSDHLGWLGDPFHLGLEDILMEE [D8W]	1.98
FPSDHLGNLGDPFHLGLEDILMEE [D8N]	3.28
FPSDHLGSLGDPFHLGLEDILMEE [D8S]	3.19
FPSDHLGYLGDPFHLGLEDILMEE [D8Y]	2.14
FPSDHLGLLGDPFHLGLEDILMEE [D8L]	2.33
FPSDHLGQLGDPFHLGLEDILMEE [D8Q]	3.07
FPSDHLGHLGDPFHLGLEDILMEE [D8H]	2.73
FPSDHLGDEGDPFHLGLEDILMEE [L9E]	4
FPSDHLGDMGDPFHLGLEDILMEE [L9M]	3.74
FPSDHLGDSGDPFHLGLEDILMEE [L9S]	3.69
FPSDHLGDTGDPFHLGLEDILMEE [L9T]	3.79
FPSDHLGDWGDPFHLGLEDILMEE [L9W]	2.19
FPSDHLGDVGDPFHLGLEDILMEE [L9V]	3.48
FPSDHLGDAGDPFHLGLEDILMEE [L9A]	3.63
FPSDHLGDLGDPFHLGLEHILMEE [D19H]	3.29
FPSDHLGDLGDPFHLGLESILMEE [D19S]	2.69
FPSDHLGDLGDPFHLGLEPILMEE [D19P]	3.31
FPSDHLGDLGDPFHLGLETILMEE [D19T]	2.58
FPSDHLGDLGDPFHLGLEYILMEE [D19Y]	1.91

Variant	protein stability index
FPSDHLGDLGDPFHLGLEDIDMEE [L21D]	4.26
FPSDHLGDLGDPFHLGLEDIAMEE [L21A]	4.03
FPSDHLGDLGDPFHLGLEDIEMEE [L21E]	4.28
FPSDHLGDLGDPFHLGLEDIWMEE [L21W]	3.14
FPSDHLGDLGDPFHLGLEDIYMEE [L21Y]	3.31
FPSDHLGDLGDPFHLGLEDIHMEE [L21H]	4.08
FPSDHLGDLGDPFHLGLEDIGMEE [L21G]	3.88
FPSDHLGDLGDPFHLGLEDIVMEE [L21V]	3.4
FPSDHLGDLGDPFHLGLEDIMMEE [L21M]	3.38
FPSDHLGDLGDPFHLGLEDIRMEE [L21R]	3.78
FPSDHLGDLGDPFHHGLEDILMEE [L15H]	3.93
FPSDHLGDLGDPFHRGLEDILMEE [L15R]	3.61
FPSDHLGDLGDPFHPGLEDILMEE [L15P]	3.7
FPSDHLGDLGDPFHIGLEDILMEE [L15I]	3.05
FPSDHLGDLGDPFHGGLEDILMEE [L15G]	3.63
FPSDHLGDLGDPFHKGLEDILMEE [L15K]	3.1
FPSDHLGDLGDPFHDGLEDILMEE [L15D]	4.45
FPSDHLGDLGDPFHVGLEDILMEE [L15V]	3.24
FPSDHLGDLGDPFHCGLEDILMEE [L15C]	3.31
FPSDHLGDLGDPFHWGLEDILMEE [L15W]	3.49
